Among the data in US20170101466A1 (published 2017) are IC50 and Kd values, retold here.

For orientation: IC50 means the midpoint of a concentration-inhibition curve. Broadly, the Kd is a measure of binding affinity in units of concentration.

In one experiment the target is T1, soluble cynomolgus BLyS (cynomolgus, UniProt A0A2K5V2X4 134-285).
T1 construct: Soluble form; also called cyBLyS; Soluble cyBLyS
Description: ELISA, soluble cyBLyS. (In general: An ELISA detects its analyte on a solid surface through an enzyme-linked reagent.)

Experiment [1] deals with T2, soluble human BLyS (human, UniProt Q9Y275 134-285).
T2 construct: also called hBLyS; human BAFF (BLyS)
Description: ELISA, soluble hBLyS; soluble hBLyS ELISA.

Experiment [2] has as its target T3, soluble mouse BLyS (mouse, UniProt Q9WU72 127-309).
T3 construct: europium-labelled in DELFIA; also called mBLyS; mouse BAFF (BLyS)
In words: Biacore. (In SPR one partner is held on a chip, and binding of the other changes the refractive index at the surface.)

Experiment [3] has as its target T3, soluble mouse BLyS. In words: ELISA, soluble mBLyS.
In experiment [4] the target is T2, soluble human BLyS. Description: ELISA, soluble hBLyS; soluble hBLyS ELISA (weak, IC50 28 nM).
The target in experiment [5] is T2, soluble human BLyS. In words: blocking of biotinylated soluble hBLyS binding to immobilized mBR3; hBLyS/mBR3 receptor blocking assay; no blocking up to 100 nM.

B1: 1F4 IgG expressed in HEK293 cells (antibody, V domains shown)
VH: QVTLKESGPTLVKPTQTLTLTCTFSGFSLSTSRVGVGWIRQPPGKALEWLARIDWDDDKYYSTSLKTRLTISKDTSKNQVVLTMTNMDPVDTATYYCARTHTYYDILTGYSYHVYFDYWGQGTLVTVSS
VL: QSALTQPPSASGSRGQSVSISCSGSRSDIGYYNYVSWYQQHPGKAPKLIIFDVNKRPSGVPDRFSGSKSGNTASLTVSGLQPEDEADYYCASYGGRNNLLFGGGTQLTVLG
notes: IgG from HEK293-FreeStyle cells; also called IF4
As to B1, the figures for the IC50 with soluble cynomolgus BLyS and with soluble human BLyS [1] were 0.11 nM and 2.87 nM, respectively.

B2: 4A2 IgG expressed in HEK293 cells (antibody, V domains shown)
VH: QVQLVQSGGGVVQPGRSLRLSCAASGFTFSSYGMHWVRQAPGKGLEWVAVISHDGSNKYYADSVKGRFTISRDNSKNTLYLQMNSLRAEDTAVYYCAKDRSYYDILTGYYIPYYYGMDVWGQGTTVTVSS
VL: QAVLTQPPSASGTPGQKVTISCSGSSSDIGSNNVNWYQQFPGTAPKLLIHSNNLRPSGVPVRFSGSKSGTSASLAISGLQSEDEADYYCSAWDDSVNGVAFGGGTKLTVLG
notes: IgG from HEK293-FreeStyle cells
On to B2, for which, in the experiment with soluble mouse BLyS [2], the Kd was 0.0486 nM. In addition, the IC50 with soluble mouse BLyS [3] was 0.47 nM; with soluble cynomolgus BLyS it was 1.46 nM; with soluble human BLyS [4] it was 28 nM; in the experiment with soluble human BLyS [5], above 100 nM.
